Reference: US20220143204A1 (LINXIS B V, published 2022)

Key:
[1] = target: T1, human PDGFRB on SCC VII cells (human, UniProt P09619 33-1106); assay: binding assay on SCC VII cells transfected with hPDGFRB
T1 construct: whole, on cells; also called hPDGFRB; SCC-hPDGFRB
Procedure: (§1) Based on their high affinity and binding to non-overlapping hPDGRB epitopes, VHHs SP02P, SP12P SP14P and […] were selected for the design of biparatopic VHH constructs and produced in a similar way as described in example 6.1. (FIG. 15A). The binding affinities of the biparatopic constructs were determined with an ELISA assay with the periplasm (FIG. 15A). Moreover, based on their high affinity and binding to non-overlapping rPDGRB epitopes, VHHs SP26P and SP28P were selected for the design of a biparatopic VHH construct and produced in a similar way as described in example 6.1. The formed biparatopic SP28P-SP26P was conjugated to IRDye800CW (SP28P-SP26P-IRDye800CW conjugation method as described in example 9.2) and subjected to a binding assay SCC VII cells transfected with hPDGFRB, rPDGFRB or hIGF2R were performed (FIG. 15B). […] In order to create a biparatopic VHH construct which is cross-reactive for hPDGFRB and rPDGFRB, VHH SP02P binding to hPDGFRB and VHH SP026P binding to rPDGFRB were selected and the biparatopic construct SP02P-SP26P was produced in a similar way as described in example 6.1. (FIG. 15C). Construct SP02P-SP26P was conjugated to IRDye800CW (SP02P-SP26P-IRDye800CW, conjugation method as described in example 9.2) and subjected to bindings assays on SCC VII cells transfected with hPDGFRB, rPDGFRB or hIGF2R were performed (FIG. 15C).

[2] = target: T1, human PDGFRB on SCC VII cells; assay: binding assay of the IRDye800CW conjugate on SCC VII cells transfected with human PDGFRB, fluorescence at 800 nm
Procedure: as §1

[3] = target: T2, human PDGFRB on LX-2 cells (human, UniProt P09619); assay: binding assay on the human hepatic stellate cell line LX-2 (Example 4)
T2 construct: full-length receptor on the cell surface; The list has human PDGFRB only on SCC VII cells

[4] = target: T1, human PDGFRB on SCC VII cells; assay: binding assay on SCC VII cells transfected with human PDGFRB-GFP, VHH detected with anti-VHH rabbit serum and IRDye800CW secondary antibody; binding in % (n=6) [left panel]
Procedure: (§2) FIG. 9. Binding of selected VHHs on SCC VII cells transfected with either the human or rat PDGFRB receptor (SCC-hP or SCC-rP) fused to GFP. The VHH is detected using anti-VHH rabbit serum and donkey-anti-rabbit secondary antibody labelled with IRDye800CW.
(§3) The results are summarized in FIGS. 5 and 6 for the hPDGFRB and rPDGFRB VHHs, respectively. […] Moreover, the binding affinities of the hPDGFRB VHHs human were also determined on the human hepatic stellate cell (HSC) line LX-2 (FIG. 5).

[5] = target: T3, human PDGFRB extracellular domain (human, UniProt P09619 33-532); assay: binding assay on immobilised human PDGFRB ectodomain, apparent affinity (Example 4)
T3 construct: extracellular domain; also called hPDGFRB-ECD; human PDGFRB ectodomain

[6] = target: T1, human PDGFRB on SCC VII cells; assay: binding assay on SCC VII cells transfected with human PDGFRB (Example 4)
[7] = target: T4, human IGF2R on cells (human, UniProt P11717 41-2491); assay: binding assay on SCC VII cells over-expressing human IGF2R
T4 construct: whole, on cells; On SCC VII cells over-expressing human IGF2R, NIH 3T3 2.2 cells transiently transfected with hIGF2R, or A549 cells, as told under assay or readout; also called hIGF2R
Procedure: (§4) To determine whether 13F11-13E8 is cross-reactive against rIGF2R, the construct was conjugated to IRDye800CW (13F11-13E8-IRDye800CW, conjugation method as described in example 9.2) and the binding affinity was determined using a binding assay on SCC VII cells over-expressing either human, or rat IGF2R (FIG. 12).

[8] = target: T5, rat IGF2R on cells (rat, UniProt A0A8I6GLL6 43-2479); assay: binding assay on SCC VII cells over-expressing rat IGF2R
T5 construct: whole, on cells; also called rIGF2R
Procedure: as §4

[9] = target: PDGFRB ECD; assay: competition ELISA on PDGFRB ECD: unconjugated competitor titrated against SP26P-IRDye800, fluorescence at 800 nm
Procedure: Competition ELISAs were carried out to determine whether the hPDGFRB specific binders (FIG. 5) and rPDGFRB specific binders (FIG. 6) recognize distinct epitopes on hPDGFRB or rPDGFRB, respectively. The hPDGFRB binding VHHs SP02P, SP05P, SP12P and SP14P and the rPDGFRB binder SP26P were conjugated to IRDye800CW (VHH-IRDye800CW, conjugation method as described in example 9.2) and each conjugated VHH was mixed with unconjugated competitor in trifold serial dilutions and incubated on immobilized […]. Two VHHs share (part of) the same epitope when the fluorescence signal of the VHH-IRDye800CW decreases upon increasing concentration of unconjugated VHH. Furthermore, using a similar method as described in section 5.1, binding epitope competition between the hPDGFRB binding VHH SP02P and rPDGFRB binding VHH SP26P was performed. No competition was observed between the two VHHs qualifying them as building blocks for biparatopic binding molecules (FIG. 11).

[10] = target: T3, human PDGFRB extracellular domain; assay: binding and competition assays of Examples 4 and 5
[11] = target: T6, rat PDGFRB on SCC VII cells (rat, UniProt Q05030 32-1097); assay: binding assay on SCC VII cells transfected with rat PDGFRB-GFP, VHH detected with anti-VHH rabbit serum and IRDye800CW secondary antibody; binding in % (n=2) [right panel]
T6 construct: whole, on cells; also called rPDGFRB; SCC-rPDGFRB
Procedure: as §2, §3

[12] = target: T7, rat PDGFRB extracellular domain (rat, UniProt Q05030 32-531); assay: binding assay on immobilised rat PDGFRB ectodomain, apparent affinity (Example 4)
T7 construct: extracellular domain; also called rPDGFRB-ECD; rat PDGFRB ectodomain
T7 sequence (looked up): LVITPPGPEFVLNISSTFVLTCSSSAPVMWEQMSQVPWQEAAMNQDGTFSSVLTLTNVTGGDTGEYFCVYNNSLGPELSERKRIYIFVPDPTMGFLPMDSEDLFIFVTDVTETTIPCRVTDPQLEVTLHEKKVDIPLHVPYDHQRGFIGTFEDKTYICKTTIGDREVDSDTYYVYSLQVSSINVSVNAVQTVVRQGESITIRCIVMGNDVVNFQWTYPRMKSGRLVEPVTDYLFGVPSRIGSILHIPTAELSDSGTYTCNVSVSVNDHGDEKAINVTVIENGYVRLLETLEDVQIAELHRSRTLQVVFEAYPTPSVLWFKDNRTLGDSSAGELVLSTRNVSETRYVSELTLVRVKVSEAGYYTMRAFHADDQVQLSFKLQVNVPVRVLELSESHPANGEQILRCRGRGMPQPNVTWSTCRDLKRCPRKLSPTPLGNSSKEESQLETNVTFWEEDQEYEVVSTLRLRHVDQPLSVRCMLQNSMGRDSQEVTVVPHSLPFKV

[13] = target: T6, rat PDGFRB on SCC VII cells; assay: binding assay on SCC VII cells transfected with rat PDGFRB (Example 4)

T1 sequence (P09619 33-1106): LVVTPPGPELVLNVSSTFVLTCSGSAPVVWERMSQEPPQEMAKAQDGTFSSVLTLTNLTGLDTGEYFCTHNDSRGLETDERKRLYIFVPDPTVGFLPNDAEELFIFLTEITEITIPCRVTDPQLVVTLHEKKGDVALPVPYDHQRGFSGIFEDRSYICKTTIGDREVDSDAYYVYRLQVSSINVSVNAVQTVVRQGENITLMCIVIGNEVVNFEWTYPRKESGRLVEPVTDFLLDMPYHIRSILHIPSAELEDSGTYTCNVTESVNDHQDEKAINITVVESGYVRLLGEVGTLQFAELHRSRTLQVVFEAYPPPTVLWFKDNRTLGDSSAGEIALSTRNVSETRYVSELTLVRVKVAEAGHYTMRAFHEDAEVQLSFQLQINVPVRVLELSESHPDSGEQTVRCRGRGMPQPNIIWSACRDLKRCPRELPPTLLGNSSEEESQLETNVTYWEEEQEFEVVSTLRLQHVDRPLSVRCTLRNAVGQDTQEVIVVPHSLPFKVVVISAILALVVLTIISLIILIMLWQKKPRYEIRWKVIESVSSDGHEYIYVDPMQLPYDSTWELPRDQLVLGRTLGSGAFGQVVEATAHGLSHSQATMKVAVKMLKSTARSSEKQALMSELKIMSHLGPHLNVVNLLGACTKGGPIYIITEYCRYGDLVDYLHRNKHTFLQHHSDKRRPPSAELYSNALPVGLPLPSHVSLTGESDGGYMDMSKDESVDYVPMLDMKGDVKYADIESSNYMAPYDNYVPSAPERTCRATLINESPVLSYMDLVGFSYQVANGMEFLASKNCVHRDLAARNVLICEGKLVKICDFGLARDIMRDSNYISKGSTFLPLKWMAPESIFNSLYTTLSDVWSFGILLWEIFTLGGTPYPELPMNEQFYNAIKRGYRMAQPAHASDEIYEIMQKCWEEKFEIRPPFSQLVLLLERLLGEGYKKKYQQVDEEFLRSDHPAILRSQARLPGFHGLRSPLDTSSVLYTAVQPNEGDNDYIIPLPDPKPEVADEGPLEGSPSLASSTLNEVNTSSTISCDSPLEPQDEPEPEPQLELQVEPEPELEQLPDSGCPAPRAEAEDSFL
T3 sequence (P09619 33-532): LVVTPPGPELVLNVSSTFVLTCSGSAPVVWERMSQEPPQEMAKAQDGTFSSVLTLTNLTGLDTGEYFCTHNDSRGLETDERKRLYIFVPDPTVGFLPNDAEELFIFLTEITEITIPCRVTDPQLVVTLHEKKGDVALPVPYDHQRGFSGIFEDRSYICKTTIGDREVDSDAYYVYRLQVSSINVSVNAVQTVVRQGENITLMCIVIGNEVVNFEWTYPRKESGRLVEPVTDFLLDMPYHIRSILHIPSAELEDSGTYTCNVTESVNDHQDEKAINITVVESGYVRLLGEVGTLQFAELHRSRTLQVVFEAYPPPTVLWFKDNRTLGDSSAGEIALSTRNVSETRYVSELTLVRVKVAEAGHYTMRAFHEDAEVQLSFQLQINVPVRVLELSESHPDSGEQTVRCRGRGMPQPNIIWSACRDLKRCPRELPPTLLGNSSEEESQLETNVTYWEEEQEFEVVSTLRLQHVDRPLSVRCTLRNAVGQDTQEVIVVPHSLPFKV
T4 sequence (P11717 41-2491): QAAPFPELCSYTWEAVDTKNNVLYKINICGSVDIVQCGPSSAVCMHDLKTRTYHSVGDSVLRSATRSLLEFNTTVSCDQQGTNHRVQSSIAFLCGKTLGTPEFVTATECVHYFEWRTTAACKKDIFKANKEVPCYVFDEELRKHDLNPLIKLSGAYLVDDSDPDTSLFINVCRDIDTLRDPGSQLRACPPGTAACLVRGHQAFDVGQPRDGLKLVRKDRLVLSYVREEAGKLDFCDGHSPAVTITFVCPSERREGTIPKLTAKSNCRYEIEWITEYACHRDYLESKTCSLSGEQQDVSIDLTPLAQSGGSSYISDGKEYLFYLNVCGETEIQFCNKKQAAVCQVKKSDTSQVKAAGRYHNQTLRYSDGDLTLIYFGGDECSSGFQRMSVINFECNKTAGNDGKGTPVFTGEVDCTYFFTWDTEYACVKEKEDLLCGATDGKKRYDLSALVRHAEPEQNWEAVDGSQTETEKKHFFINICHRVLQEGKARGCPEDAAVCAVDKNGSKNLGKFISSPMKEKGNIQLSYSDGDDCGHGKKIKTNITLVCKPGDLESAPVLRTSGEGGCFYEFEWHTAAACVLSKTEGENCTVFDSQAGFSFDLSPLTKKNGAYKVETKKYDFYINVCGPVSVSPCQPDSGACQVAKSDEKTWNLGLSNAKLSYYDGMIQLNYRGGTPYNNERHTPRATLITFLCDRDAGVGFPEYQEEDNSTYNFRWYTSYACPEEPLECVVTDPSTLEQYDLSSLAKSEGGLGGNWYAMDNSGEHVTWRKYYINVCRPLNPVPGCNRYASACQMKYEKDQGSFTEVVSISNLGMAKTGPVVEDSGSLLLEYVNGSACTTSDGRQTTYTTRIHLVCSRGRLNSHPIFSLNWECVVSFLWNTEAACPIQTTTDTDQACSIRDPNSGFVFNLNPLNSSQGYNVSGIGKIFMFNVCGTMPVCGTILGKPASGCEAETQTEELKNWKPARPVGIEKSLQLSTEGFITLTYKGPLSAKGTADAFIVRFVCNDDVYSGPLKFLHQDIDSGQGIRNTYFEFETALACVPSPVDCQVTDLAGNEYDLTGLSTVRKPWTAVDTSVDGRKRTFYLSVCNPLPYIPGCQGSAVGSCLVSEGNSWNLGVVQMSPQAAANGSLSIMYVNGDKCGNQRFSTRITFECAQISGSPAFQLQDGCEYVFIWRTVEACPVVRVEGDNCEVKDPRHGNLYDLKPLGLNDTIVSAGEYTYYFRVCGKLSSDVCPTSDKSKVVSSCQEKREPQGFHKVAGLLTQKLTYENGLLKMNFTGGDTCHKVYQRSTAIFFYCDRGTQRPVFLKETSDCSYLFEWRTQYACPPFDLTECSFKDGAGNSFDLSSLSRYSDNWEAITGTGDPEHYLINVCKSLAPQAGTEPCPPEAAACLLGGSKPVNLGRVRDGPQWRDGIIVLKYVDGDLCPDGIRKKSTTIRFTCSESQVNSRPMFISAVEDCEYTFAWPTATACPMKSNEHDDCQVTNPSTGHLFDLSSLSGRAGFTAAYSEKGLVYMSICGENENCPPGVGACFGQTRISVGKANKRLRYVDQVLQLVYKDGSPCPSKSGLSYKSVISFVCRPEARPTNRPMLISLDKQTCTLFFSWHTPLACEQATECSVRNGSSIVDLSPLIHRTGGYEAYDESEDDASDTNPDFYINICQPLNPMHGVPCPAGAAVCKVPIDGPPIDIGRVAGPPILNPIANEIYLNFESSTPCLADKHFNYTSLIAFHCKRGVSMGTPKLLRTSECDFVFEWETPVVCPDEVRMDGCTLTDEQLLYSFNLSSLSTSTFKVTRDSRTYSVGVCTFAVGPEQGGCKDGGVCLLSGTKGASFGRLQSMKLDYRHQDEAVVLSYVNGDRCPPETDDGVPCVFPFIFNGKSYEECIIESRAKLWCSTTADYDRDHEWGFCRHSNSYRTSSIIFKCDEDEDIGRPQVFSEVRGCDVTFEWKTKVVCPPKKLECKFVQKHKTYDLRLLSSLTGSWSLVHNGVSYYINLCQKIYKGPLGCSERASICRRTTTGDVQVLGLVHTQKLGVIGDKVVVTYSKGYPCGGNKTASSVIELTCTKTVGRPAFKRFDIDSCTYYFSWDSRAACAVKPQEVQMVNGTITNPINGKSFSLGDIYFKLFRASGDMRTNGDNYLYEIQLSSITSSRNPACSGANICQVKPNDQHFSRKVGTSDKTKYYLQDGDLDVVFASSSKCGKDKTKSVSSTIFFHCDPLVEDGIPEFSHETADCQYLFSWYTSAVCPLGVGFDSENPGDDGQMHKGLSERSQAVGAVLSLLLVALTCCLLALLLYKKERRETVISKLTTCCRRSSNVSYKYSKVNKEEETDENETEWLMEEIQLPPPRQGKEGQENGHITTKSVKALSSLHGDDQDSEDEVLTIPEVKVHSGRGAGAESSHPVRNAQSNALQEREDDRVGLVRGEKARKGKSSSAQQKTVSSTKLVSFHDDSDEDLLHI
T2 sequence (P09619 33-1106 limits assumed): as the sequence (P09619 33-1106) above
Sequence of PDGFRB ECD (P09619 33-532): as the sequence (P09619 33-532) above

B1: SP02P-SP26P-IRDye800CW (VHH, not shown: small tags and cut ends)
chain: EVQLVESGGGLVQAGGSLRLSCAASESISSIEQMGWFRQAPGKQRALVAINTYGGRTVYTNSVEGRFTMSRDSAKNMVYLQMTSLEPEDTAVYYCYAQTTAWRGGVWGQGTQVTVSSGGGGSGGGGSGGGGSEVQLVESGGGLVQAGGSLRLSCAASGRSFSSSVMGWFRQTPGKEREFVAATRWTAASTHYADSVKGRFTISRDHAENAVFLQMNSLKPEDTAVYYCAAGNYLDTAQYRYNYWGQGTQVTVSS
modifications: IRDye800CW by maleimide chemistry on the C-terminal free cysteine
notes: Biparatopic tandem VHH
Kd [1]: < 5 nM
Kd [2]: 2.2 nM

B2: SP02P (VHH)
VHH: EVQLVESGGGLVQAGGSLRLSCAASESISSIEQMGWFRQAPGKQRALVAINTYGGRTVYTNSVEGRFTMSRDSAKNMVYLQMTSLEPEDTAVYYCYAQTTAWRGGVWGQGTQVTVSS
notes: Llama VHH; on phage in the phage ELISA
Kd [3]: 6.7 nM
EC50 (read off the curve) [4]: ~4 nM
Kd [5]: 6.2 nM
Kd [6]: 4.1 nM

B3: SP28P-SP26P-IRDye800CW (VHH, not shown: small tags and cut ends)
chain: EVQLVESGGGLVQAGGSLRLSCAASGSIVSFNGINWYRQAPGKQREWVGGITQGGNTMYADSVRGRFTISRDNTKNTMYLQMNSLKPEDTAVYYCRRPPVASWGQGTQVTVSSGGGGSGGGGSGGGGSEVQLVESGGGLVQAGGSLRLSCAASGRSFSSSVMGWFRQTPGKEREFVAATRWTAASTHYADSVKGRFTISRDHAENAVFLQMNSLKPEDTAVYYCAAGNYLDTAQYRYNYWGQGTQVTVSS
modifications: IRDye800CW by maleimide chemistry on the C-terminal free cysteine
notes: Biparatopic tandem VHH; also called SP28-SP26P; SP28-26P
Kd [2]: 32.4 nM

B4: 13F11-13E8-IRDye800CW (VHH, not shown: small tags and cut ends)
chain: EVQLVESGGRLVQPGDSLRLSCAASGRTFSDNAMGWFRQAPGKERRFVAGISWAGGSTYYSDSVKGRFTISRDNAKNTVYLQMNSLKPEDTAVYYCAAGLRAWVQRMPKDYNYWGQGTQVTVSSGGGGSGGGGSGGGGSEVQLVESGGGLVQAGGSLRLSCAASRSISPMGWYRQAPGKQRELVAIMPSSGPPIYADSVQGRFTISRDNAKNTVYLQMNSLKPEDTAVYYCNVGGGYWGQGTQVTVSS
modifications: IRDye800CW by maleimide chemistry on the C-terminal free cysteine
notes: Biparatopic tandem VHH; also called IRD800CW conjugated 13F11-13E8; F11E8
Kd [7]: < 10 nM
Kd [8]: < 10 nM

B5: SP26P (VHH)
VHH: EVQLVESGGGLVQAGGSLRLSCAASGRSFSSSVMGWFRQTPGKEREFVAATRWTAASTHYADSVKGRFTISRDHAENAVFLQMNSLKPEDTAVYYCAAGNYLDTAQYRYNYWGQGTQVTVSS
notes: Llama VHH; on phage in the phage ELISA; also called SP026P
IC50 (read off the curve) [9]: ~40 nM
binding result [10]: binds

B6: SP28P (VHH)
VHH: EVQLVESGGGLVQAGGSLRLSCAASGSIVSFNGINWYRQAPGKQREWVGGITQGGNTMYADSVRGRFTISRDNTKNTMYLQMNSLKPEDTAVYYCRRPPVASWGQGTQVTVSS
notes: as for B2
EC50 (read off the curve) [11]: ~0.6 nM
Kd [12]: 6 nM
Kd [13]: 0.5 nM
